The subject of data set [1] is KorA WT (IncP-1 plasmid (expressed in E. coli)). In words: EMSA.
The subject of data set [2] is KorA Y84A (IncP-1 plasmid (expressed in E. coli)). Description: EMSA.

With “korAp fragment (220 bp, EcoRI-cut pSTM12)”, the figures for the K half in data set [1] and in data set [2] were 300 nM and 200 nM, respectively.

Source of the values: publication PMC2680271.
